The source of these data is patent US20230416351A1 (Novartis, published 2023).

For the experiment, the target named is T1, recombinant VEGF165 protein (human, UniProt P15692 27-191).
T1 construct: mature; the 165-residue isoform is meant; also called VEGF-A
Description: SPR in vitro binding, drug and recombinant VEGF165, 37 C. The protocol:
Drug-specific parameters used are defined based upon which drug(s) is included in the specific simulation. These values are shown in Table 2 for brolucizumab, aflibercept, and ranibizumab. The drug:VEGF binding parameter values (the dissociation rate constant “koff” and the equilibrium binding constant “Kd”) were defined on the basis of a surface plasmon resonance (SPR) in vitro binding experiment with drug and recombinant VEGF165 protein at 37° C. according to manufacturer's instructions. The hydrodynamic radius values for drug (“rh_R”) and associated drug:VEGF complexes (“rh_VR” and “rh_RVR”) were sourced from literature reports (Caruso et. al., Mol. Pharmaceutics 2020, 17, 695-709) or from computational structure models of drug and VEGF. This includes estimated hydrodynamic radius values for the heterogenous complexes consisting of one VEGF dimer and two different VEGF antagonists (“rh_ROVR”). Drug-independent parameters used are used to describe VEGF production and distribution within and out of the eye, as well as general biophysical properties of the eye such as permeability coefficients for the Inner Limiting Membrane (ILM) and Retinal Pigment Epithelium (RPE) and the clearance rate from the aqueous chamber.

T1 sequence (P15692 other isoform, or with tags, fused parts or gaps): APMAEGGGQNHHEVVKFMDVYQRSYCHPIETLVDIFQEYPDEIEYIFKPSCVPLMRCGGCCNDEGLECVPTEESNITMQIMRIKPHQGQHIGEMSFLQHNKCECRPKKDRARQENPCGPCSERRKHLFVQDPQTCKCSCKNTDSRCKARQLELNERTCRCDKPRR

B1: brolucizumab (scFv)
scFv: MEIVMTQSPSTLSASVGDRVIITCQASEIIHSWLAWYQQKPGKAPKLLIYLASTLASGVPSRFSGSGSGAEFTLTISSLQPDDFATYYCQNVYLASTNGANFGQGTKLTVLGGGGGSGGGGSGGGGSGGGGSEVQLVESGGGLVQPGGSLRLSCTASGFSLTDYYYMTWVRQAPGKGLEWVGFIDPDDDPYYATWAKGRFTISRDNSKNTLYLQMNSLRAEDTAVYYCAGGDHNSGWGLDIWGQGTLVTVSS
notes: Humanized single-chain Fv (VL-linker-VH), ~26 kDa; also called Beovu; VEGF antagonist A
Consider B1, for which the Kd (as a rule, the concentration at which binding is half-saturated) was determined as 0.101 nM.
